Laboratory results reported in PMC7261193, “The ancillary N-terminal region of the yeast AP-1 transcription factor Yap8 contributes to its DNA binding specificity”.

Legend:
[1] = biological target: GST-Yap8-7aa A23T;L26N;S29A;N31R;K35E;L37E;E39R (Saccharomyces cerevisiae) (UniProt Q06596); experiment: fluorescence anisotropy; settings: FA: 10 mM Tris-HCl pH 8, 50 mM NaCl, 0.5% NP-40, 1 mM DTT, 5% glycerol, 1 nM DNA, 25C (half volume protein elution buffer). Biotin EMSA: LightShift 1x buffer …
[2] = biological target: GST-Yap8-8aa N20Q;A23T;L26N;S29A;N31R;K35E;L37E;E39R (Saccharomyces cerevisiae) (UniProt Q06596); experiment: fluorescence anisotropy; settings: FA: 10 mM Tris-HCl pH 8, 50 mM NaCl, 0.5% NP-40, 1 mM DTT, 5% glycerol, 1 nM DNA, 25C (half volume protein elution buffer). Biotin EMSA: LightShift 1x buffer …
GST-Yap8-R11K = biological target: T1, GST-Yap8-R11K (Saccharomyces cerevisiae, UniProt Q06596 1-294, R11K); experiment: EMSA; FA: 10 mM Tris-HCl pH 8, 50 mM NaCl, 0.5% NP-40, 1 mM DTT, 5% glycerol, 1 nM DNA, 25C (half volume protein elution buffer). Biotin EMSA: LightShift 1x buffer, 50 ng poly(dI-dC), 2.5% glycerol, 0.05% NP-40, 5 mM MgCl2, 20 fmol probe, RT 20 min. 32P EMSA: 10 mM Tris-HCl pH 8.0, 50 mM NaCl, 1 mM DTT, 0.05% NP-40, 100 ng poly(dI-dC), 6% glycerol, 4C 30 min; settings: protein: recombinant; tags: GST (N-term); chain copies: 2; blunt
T1 sequence: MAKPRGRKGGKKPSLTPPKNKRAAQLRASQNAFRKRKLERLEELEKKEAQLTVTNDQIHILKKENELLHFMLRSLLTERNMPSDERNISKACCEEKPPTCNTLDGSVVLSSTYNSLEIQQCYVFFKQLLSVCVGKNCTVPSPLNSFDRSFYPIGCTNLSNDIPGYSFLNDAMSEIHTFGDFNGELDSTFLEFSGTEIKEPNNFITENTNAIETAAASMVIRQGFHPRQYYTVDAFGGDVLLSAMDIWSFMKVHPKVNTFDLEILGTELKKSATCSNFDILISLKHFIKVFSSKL

GST-Yap8-R7K,R11K = biological target: T2, GST-Yap8-R7K,R11K (Saccharomyces cerevisiae, UniProt Q06596 1-294, R7K;R11K); experiment: as above; settings: protein: recombinant; tags: GST (N-term); chain copies: 2; blunt
T2 sequence: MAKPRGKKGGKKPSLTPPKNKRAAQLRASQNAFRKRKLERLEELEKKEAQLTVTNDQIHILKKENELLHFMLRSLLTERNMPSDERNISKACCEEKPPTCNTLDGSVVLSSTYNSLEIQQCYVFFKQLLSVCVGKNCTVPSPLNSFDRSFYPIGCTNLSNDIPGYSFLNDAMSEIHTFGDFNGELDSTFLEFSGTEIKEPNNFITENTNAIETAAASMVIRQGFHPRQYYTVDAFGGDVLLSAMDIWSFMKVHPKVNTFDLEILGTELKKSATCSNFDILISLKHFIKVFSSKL

GST-Yap8-4aa = biological target: T3, GST-Yap8-4aa (Saccharomyces cerevisiae, UniProt Q06596 1-294, A23T;L26N;S29A;N31R); experiment: as above; settings: protein: recombinant, tags: GST (N-term), chain copies: 2, blunt
T3 sequence: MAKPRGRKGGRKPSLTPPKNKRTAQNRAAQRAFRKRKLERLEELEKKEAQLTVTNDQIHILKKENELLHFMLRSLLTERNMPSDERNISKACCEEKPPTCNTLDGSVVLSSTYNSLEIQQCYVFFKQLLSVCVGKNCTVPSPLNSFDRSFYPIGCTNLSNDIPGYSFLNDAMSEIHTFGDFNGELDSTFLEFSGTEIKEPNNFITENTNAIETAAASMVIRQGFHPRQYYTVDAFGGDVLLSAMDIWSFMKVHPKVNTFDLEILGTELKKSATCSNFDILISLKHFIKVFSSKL

GST-Yap8-G10A = biological target: T4, GST-Yap8-G10A (Saccharomyces cerevisiae, UniProt Q06596 1-294, G10A); experiment: as above; settings: protein: recombinant; tags: GST (N-term); chain copies: 2; blunt
T4 sequence: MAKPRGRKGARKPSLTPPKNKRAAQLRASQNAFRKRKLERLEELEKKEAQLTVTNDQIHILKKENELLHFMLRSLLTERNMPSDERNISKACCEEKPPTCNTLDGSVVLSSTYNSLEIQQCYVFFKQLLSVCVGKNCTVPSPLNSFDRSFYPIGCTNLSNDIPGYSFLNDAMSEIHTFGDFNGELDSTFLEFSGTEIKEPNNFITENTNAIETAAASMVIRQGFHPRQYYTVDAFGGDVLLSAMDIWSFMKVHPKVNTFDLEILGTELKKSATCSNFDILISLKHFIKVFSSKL

GST-Yap8 WT [3] = biological target: T5, GST-Yap8 WT (Saccharomyces cerevisiae, UniProt Q06596 1-294); experiment: as above; settings: protein: recombinant; tags: GST (N-term); chain copies: 2; label: 32P 5'; blunt
T5 sequence: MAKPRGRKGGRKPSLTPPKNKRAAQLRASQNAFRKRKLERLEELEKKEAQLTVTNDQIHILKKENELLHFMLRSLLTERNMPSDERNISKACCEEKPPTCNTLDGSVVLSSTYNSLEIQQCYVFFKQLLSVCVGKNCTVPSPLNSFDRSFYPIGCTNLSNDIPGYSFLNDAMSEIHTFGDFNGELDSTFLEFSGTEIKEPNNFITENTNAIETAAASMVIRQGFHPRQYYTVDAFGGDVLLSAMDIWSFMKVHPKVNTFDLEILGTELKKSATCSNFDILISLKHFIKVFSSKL

GST-Yap8-N20A = biological target: T6, GST-Yap8-N20A (Saccharomyces cerevisiae, UniProt Q06596 1-294, N20A); experiment: as above; settings: protein: recombinant; tags: GST (N-term); chain copies: 2; label: 32P 5'; blunt
T6 sequence: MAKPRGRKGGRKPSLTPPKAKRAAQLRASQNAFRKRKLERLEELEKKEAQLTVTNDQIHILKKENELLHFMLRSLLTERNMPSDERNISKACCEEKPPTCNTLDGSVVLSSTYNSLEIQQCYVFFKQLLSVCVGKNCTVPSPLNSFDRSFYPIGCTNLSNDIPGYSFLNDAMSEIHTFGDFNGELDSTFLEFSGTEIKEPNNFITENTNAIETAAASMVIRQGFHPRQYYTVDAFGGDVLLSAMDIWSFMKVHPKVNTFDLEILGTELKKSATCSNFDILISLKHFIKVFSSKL

GST-Yap8-N20Q = biological target: T7, GST-Yap8-N20Q (Saccharomyces cerevisiae, UniProt Q06596 1-294, N20Q); experiment: as above; settings: protein: recombinant; tags: GST (N-term); chain copies: 2; label: 32P 5'; blunt
T7 sequence: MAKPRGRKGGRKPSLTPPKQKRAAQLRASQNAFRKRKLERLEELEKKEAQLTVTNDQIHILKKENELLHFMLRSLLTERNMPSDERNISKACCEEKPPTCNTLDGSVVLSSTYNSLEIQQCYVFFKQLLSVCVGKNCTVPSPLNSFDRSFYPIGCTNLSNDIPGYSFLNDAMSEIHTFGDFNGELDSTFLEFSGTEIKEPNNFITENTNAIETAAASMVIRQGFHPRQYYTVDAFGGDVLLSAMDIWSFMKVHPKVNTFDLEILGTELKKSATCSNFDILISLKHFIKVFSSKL

GST-Yap8 WT [4] = biological target: T5, GST-Yap8 WT; experiment: fluorescence anisotropy; series c; FA: 10 mM Tris-HCl pH 8, 50 mM NaCl, 0.5% NP-40, 1 mM DTT, 5% glycerol, 1 nM DNA, 25C (half volume protein elution buffer). Biotin EMSA: LightShift 1x buffer, 50 ng poly(dI-dC), 2.5% glycerol, 0.05% NP-40, 5 mM MgCl2, 20 fmol probe, RT 20 min. 32P EMSA: 10 mM Tris-HCl pH 8.0, 50 mM NaCl, 1 mM DTT, 0.05% NP-40, 100 ng poly(dI-dC), 6% glycerol, 4C 30 min; settings: protein: recombinant; tags: GST (N-term); chain copies: 2; label: 5' FAM; blunt

With “CTTTTTGTTTGATTAATAATCAACTTTAGCG (double strand) [ACR3-WT (FAM)]” the Kd [1] was 9.3 nM and the Kd [2] was 15.1 nM.

B1: ACR3short (WT) (dsDNA)
DNA 1: TCTTAATTATCTTTTTGTTTGATTAATAATCAACTTTAGCGGCAACGCTCC
DNA 2: GGAGCGTTGCCGCTAAAGTTGATTATTAATCAAACAAAAAGATAATTAAGA
B1: no binding (GST-Yap8-R11K); no binding (GST-Yap8-R7K,R11K); binds (GST-Yap8-4aa). B1: no binding (GST-Yap8-G10A).

B2: GSH1short (dsDNA)
DNA 1: TTCTGCCCAACGACGGCTGCCATTAGTCAGCATGGCGCGCACGTGACTACA
DNA 2: TGTAGTCACGTGCGCGCCATGCTGACTAATGGCAGCCGTCGTTGGGCAGAA
B2: no binding (GST-Yap8 WT [3]); no binding (GST-Yap8-N20A); no binding (GST-Yap8-N20Q).

B3: TRX2short (dsDNA)
DNA 1: ATTGTTTATACTCTTAGTAAAGGATGCTCCCTACAAGGTGGCTCTTTTCTTACTAAGCGCGTTCAGTTTC
DNA 2: GAAACTGAACGCGCTTAGTAAGAAAAGAGCCACCTTGTAGGGAGCATCCTTTACTAAGAGTATAAACAAT
B3: no binding (GST-Yap8-4aa; label: 32P 5').

B4: ACR3-M3 (FAM) (dsDNA)
DNA 1: CTTTGCGGCTGATTAATAATCAACCGGAGCG
DNA 2: CGCTCCGGTTGATTATTAATCAGCCGCAAAG
B4 gave a Kd (GST-Yap8 WT [4]) of 19.4 ± 4.1 nM.
